Experimental data: US6630572

Columns and labels:
[1] = biological target: high-affinity cell surface thrombin receptor on mouse embryo (ME) cells (mouse) (UniProt P30558); test: competition with [^125I]-alpha-thrombin (1 nM) on quiescent ME cells; at 2.7 uM peptide
[2] = biological target: high-affinity cell surface thrombin receptor on mouse embryo (ME) cells (mouse) (UniProt P30558); test: competition with [^125I]-alpha-thrombin on ME cells
[3] = biological target: high-affinity cell surface thrombin receptor on mouse embryo (ME) cells (mouse) (UniProt P30558); test: competition with [^125I]-alpha-thrombin (1 nM) for specific binding to quiescent ME cells, 23 C
[4] = biological target: high-affinity cell surface thrombin receptor on mouse embryo (ME) cells (mouse) (UniProt P30558); test: competition with [^125I]-alpha-thrombin (1 nM) on quiescent ME cells
[5] = biological target: high-affinity cell surface thrombin receptor on mouse embryo (ME) cells (mouse) (UniProt P30558); test: competition with [^125I]-alpha-thrombin on ME cells; reference p508-530
[6] = biological target: high-affinity cell surface thrombin receptor on mouse embryo (ME) cells (mouse) (UniProt P30558); test: cell-based or functional assay

Maximal % Inhibition [1]: 50%
percent of [^125I]-alpha-thrombin binding competed [2]: 30 to 50%
Concentration Required for 30% Inhibition [3]: 300 nM
concentration at Maximal % Inhibition [4]: 2.7 µM
fold higher concentration for 30% inhibition than p508-530 [5]: 50 fold
inhibition of alpha-thrombin stimulated DNA synthesis in ME cells by 625 nM p517-520, at 0.8 nM alpha-thrombin [6]: 75%
inhibition of alpha-thrombin stimulated DNA synthesis in ME cells by 625 nM p517-520, at 13.0 nM alpha-thrombin [6]: 35%
molar excess of p517-520 over alpha-thrombin required for inhibition of stimulation [6]: 500 to 1000 fold
Binder: RGDA [synthetic peptide p517-520 (residues 517 to 520 of human prothrombin)]
